From article PMC10700433 (Cancer Immunology, Immunotherapy : CII, 2023)
Blank lines part the entries; values can stand above or below the binder they belong to.

Assays:
[1] = biological target: T1, human CD137-His (Homo sapiens, UniProt Q07011); assay: BLI; Octet Red96 (ForteBio); who was immobilised not stated; conditions: both partners purified
T1 construct: human 4-1BB (CD137, TNFRSF9), recombinant His-tagged protein from Acro; also called human 4-1BB; TNFRSF9; source: bought: Acro

[2] = biological target: T2, cynomolgus 4-1BB/TNFRSF9-His (Macaca fascicularis, UniProt A9YYE7); assay: as above; conditions: both partners purified
T2 construct: cynomolgus 4-1BB (TNFRSF9), recombinant His-tagged protein from Acro; source: bought: Acro

[3] = biological target: T3, human 4-1BB expressed on CHO-K1 cells (human, UniProt Q07011); assay: flow cytometry on cells; CHO-K1 cells stably expressing human or cynomolgus 4-1BB incubated with serially diluted ATOR-1017; detected with goat anti-hIg Fc-PE; MFI; conditions: one partner purified
T3 construct: human 4-1BB (CD137, TNFRSF9) from a gene in pcDNA3.1 (GenScript); also called CHO-hu4-1BB; hu4-1BB-CHO; source: CHO-K1, stably transfected (pcDNA3.1), on cells
T3 sequence (Q07011 24-255): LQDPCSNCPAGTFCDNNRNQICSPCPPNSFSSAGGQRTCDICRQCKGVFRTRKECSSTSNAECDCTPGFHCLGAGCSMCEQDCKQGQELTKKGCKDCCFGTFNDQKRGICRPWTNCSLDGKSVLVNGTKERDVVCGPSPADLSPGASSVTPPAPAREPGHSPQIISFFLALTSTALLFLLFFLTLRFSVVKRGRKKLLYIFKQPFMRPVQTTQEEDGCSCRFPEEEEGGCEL

[4] = biological target: T4, cynomolgus 4-1BB expressed on CHO-K1 cells (Macaca fascicularis, UniProt A9YYE7); assay: as above; conditions: one partner purified
T4 construct: cynomolgus 4-1BB (TNFRSF9) from a gene in pcDNA3.1 (GenScript); also called CHO-cy4-1BB; cy4-1BB-CHO; source: CHO-K1, stably transfected (pcDNA3.1), on cells

[5] = biological target: T5, ATOR-1017 (evunzekibart) (human); assay: BLI; Octet RED96; antibodies captured on FABG2 biosensor tips, recombinant Fcγ receptors in solution at suitable concentration ranges; association and dissociation at physiological pH; conditions: both partners purified
T5 construct: as the VH of Wm14, which is in PDB 8OZ3 (amino acids 2-118 modelled); human IgG4 heavy chain constant region, S228P stabilised; as the VL of Wm14, which is in PDB 8OZ3 (amino acids 2-110 modelled); light chain constant region; IgG4 (S228P)

[6] = biological target: T5, ATOR-1017 (evunzekibart); assay: BLI; Octet RED96; antibodies captured on FABG2 biosensor tips, recombinant FcRn in solution; association studied at physiological pH, dissociation at pH6; conditions: both partners purified

T1 sequence (Q07011 24-186): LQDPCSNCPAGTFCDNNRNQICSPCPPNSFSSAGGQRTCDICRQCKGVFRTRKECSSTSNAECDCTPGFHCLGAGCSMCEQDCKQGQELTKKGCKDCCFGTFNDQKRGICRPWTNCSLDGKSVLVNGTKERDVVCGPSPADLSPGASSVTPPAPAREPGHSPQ

B1: ATOR-1017 (evunzekibart) (antibody, V domains shown)
VH: EVQLLESGGGLVQPGGSLRLSCAASGFNFGYSYMSWVRQAPGKGLEWVSSIGSTSSHTYYADSVKGRFTISRDNSKNTLYLQMNSLRAEDTAVYYCARVYSSPGIDYWGQGTLVTVSS
VL: DIQMTQSPSSLSASVGDRVTITCRASQSIGSTLNWYQQKPGKAPKLLIYGASSLQSGVPSRFSGSGSGTDFTLTISSLQPEDFATYYCQQYYTWVPFTFGQGTKLEIK
notes: the variable domains stand in the scFv of PDB 8OZ3 (heavy chain amino acids 2-118 modelled); human IgG4 constant part, S228P stabilized; the variable domains stand in the scFv of PDB 8OZ3 (light chain amino acids 2-110 modelled); light chain constant domain; IgG4 (S228P); variable domains from the human scFv library ALLIGATOR-GOLD, optimized
Kd [1]: 0.1 nM | Kd [2]: 0.2 nM | EC50 [3]: 0.5 nM | EC50 [4]: 0.5 nM

B2: mouse FcγRIII (receptor)
chain: ALPKAVVKLDPPWIQVLKEDMVTLMCEGTHNPGNSSTQWFHNGRSIRSQVQASYTFKATVNDSGEYRCQMEQTRLSDPVDLGVISDWLLLQTPQRVFLEGETITLRCHSWRNKLLNRISFFHNEKSVRYHHYKSNFSIPKANHSHSGDYYCKGSLGSTQHQSKPVTITVQDPATTSSISLVWYHT
modifications: soluble ectodomain assumed for BLI
Kd [5]: 100 nM

B3: mouse FcRn (receptor)
chain 1: SETRPPLMYHLTAVSNPSTGLPSFWATGWLGPQQYLTYNSLRQEADPCGAWMWENQVSWYWEKETTDLKSKEQLFLEALKTLEKILNGTYTLQGLLGCELASDNSSVPTAVFALNGEEFMKFNPRIGNWTGEWPETEIVANLWMKQPDAARKESEFLLNSCPERLLGHLERGRRNLEWKEPPSMRLKARPGNSGSSVLTCAAFSFYPPELKFRFLRNGLASGSGNCSTGPNGDGSFHAWSLLEVKRGDEHHYQCQVEHEGLAQPLTVDLDSSARSS
chain 2: IQKTPQIQVYSRHPPENGKPNILNCYVTQFHPPHIEIQMLKNGKKIPKVEMSDMSFSKDWSFYILAHTEFTPTETDTYACRVKHASMAEPKTVYWDRDM
modifications: soluble Fcgrt/B2m heterodimer assumed by convention; B2m not given
Kd [6]: 200 nM

The remaining lines, values ahead:

Kd [5]: 400 nM
B4: mouse FcγRIV (receptor)
chain: GLQKAVVNLDPKWVRVLEEDSVTLRCQGTFSPEDNSIKWFHNESLIPHQDANYVIQSARVKDSGMYRCQTALSTISDPVQLEVHMGWLLLQTTKWLFQEGDPIHLRCHSWQNRPVRKVTYLQNGKGKKYFHENSELLIPKATHNDSGSYFCRGLIGHNNKSSASFRISLGDPGSPSMFPPWHQ
modifications: soluble ectodomain assumed for BLI

Kd [5]: 300 nM
B5: mouse FcγRIIb (receptor)
chain: THDLPKAVVKLEPPWIQVLKEDTVTLTCEGTHNPGNSSTQWFHNGRSIRSQVQASYTFKATVNDSGEYRCQMEQTRLSDPVDLGVISDWLLLQTPQLVFLEGETITLRCHSWRNKLLNRISFFHNEKSVRYHHYSSNFSIPKANHSHSGDYYCKGSLGRTLHQSKPVTITVQGPKSSRSLP
modifications: soluble ectodomain assumed for BLI
